Drawing on article PMC5932034, this text covers ratio to parent and Kd for five substances.

In assay [1] the target is fused FliS−FliC^C construct (FliC^C fused to the C terminus of FliS) (UniProt P06179). Nature of the assay: ITC. As to conditions: read off a plot.
Assay [2] addresses cytoplasmic domain of Salmonella enterica serovar Typhimurium FlhA (FlhA^C) (Salmonella enterica serovar Typhimurium ST313) (UniProt P40729). Kind of assay: ITC; FlhA^C and variants (0.1–0.2 mM) in the cell, FliT-FliD, FliS-FliC and variants (1.0–2.0 mM) in the syringe; 25 °C; 50 mM NaPi pH 6.8, 300 mM NaCl, 0.05% NaN3; one-site binding model. (In ITC the heat of successive injections is recorded.)

The target of assay [3] is cytoplasmic domain of Salmonella enterica serovar Typhimurium FlhA (FlhA^C) (UniProt P40729). Kind of assay: ITC. As to conditions: read off a plot.

For orientation: Kd means the free concentration of one partner at which half of the binding sites on the other are occupied at equilibrium, for simple one-to-one binding.

On to “cytoplasmic domain of Salmonella enterica serovar Typhimurium FlhA (FlhA^C) (from UniProt P40729) L476A”, for which the ratio to parent in assay [1] is 8 fold.

As for “fused FliS−FliC^C construct (FliC^C fused to the C terminus of FliS) (from UniProt P06179 454-495)”, the Kd in assay [2] came to 10 µM.

Take “fused FliT−FliD^C construct (FliD^C fused to the N terminus of FliT) (from UniProt P16328)”: the Kd in assay [2] was determined as 20 µM.

As for “fused FliT−FliD^C construct (FliD^C fused to the N terminus of FliT) (from UniProt P16328) I93D”, the ratio to parent in assay [3] came to 3.3 fold.

Consider “fused FliT−FliD^C construct (FliD^C fused to the N terminus of FliT) (from UniProt P16328) R98D”, for which, in assay [3], the ratio to parent was 4.5 fold.
